The record followed here is PMC7662849 (2020).

Groups on a side chain read outwards from the residue.

This assay deals with T1, H3(E5)2 branched peptide (not fully specified).
T1 chain: Ac-EEEEEGGK([Gly-Gly-Kme3‑VGGTAPAS])GGEEEEE-NH2
Kind of assay: NMR titration.

B1: PSIP1 (LEDGF) PWWP domain PWWP (protein)
chain: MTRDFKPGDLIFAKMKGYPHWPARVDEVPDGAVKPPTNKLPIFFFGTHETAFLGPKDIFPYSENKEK
A word on the Kd: it is the free concentration of one partner at which half of the binding sites on the other are occupied at equilibrium, for simple one-to-one binding. B1 returned a Kd of 360 µM.
